Measurements reported in patent US20180118803A1 (Memorial Sloan Kettering, published 2018).

Experiments:
[1] = biological target: T1, GPRC5D peptide stretch 15LCDAEGPWG23 (N-term) (human); assay: Pepscan ELISA on peptide arrays, high stringency, 3 ug/ml
T1 construct: This is a stretch deduced from array peptides that contain it
T1 peptide: LCDAEGPWG
Method: (§1) ELISA Screening—The binding of antibody to each of the synthesized peptides was tested in a PEPSCAN-based ELISA. The peptide arrays were incubated with primary antibody solution (overnight at 4° C.). After washing, the peptide arrays were incubated with a 1/1000 dilution of an appropriate antibody peroxidase conjugate (SBA) for one hour at 25° C. After washing, the peroxidase substrate 2,2′-azino-di-3-ethylbenzthiazoline sulfonate (ABTS) and 2 μl/ml of 3 percent H₂O₂ were added. After one hour, the color development was measured. The color development was quantified with a charge coupled device (CCD)—camera and an image processing system.

[2] = biological target: T2, GPRC5D peptides containing sequence 230QFQRQPQWDDPVVC243 (ECL3) (human); assay: Pepscan ELISA, set 1 (linear) compared with set 4 (loop), high stringency, 3 ug/ml
T2 construct: This is a stretch deduced from array peptides that contain it
T2 peptide: QFQRQPQWDDPVVC

[3] = biological target: T3, GPRC5D peptide stretch 5CIESTGDYFLLCD17 (N-term) (human); assay: Pepscan ELISA on peptide arrays, high stringency, 1 ug/ml
T3 construct: This is a stretch deduced from array peptides that contain it
T3 peptide: CIESTGDYFLLCD
Method: as §1

[4] = biological target: T4, GPRC5D peptide stretch 16CDAEGPWGII25 (N-term) (human); assay: Pepscan ELISA on peptide arrays, moderate stringency, 1 ug/ml
T4 construct: This is a stretch deduced from array peptides that contain it
T4 peptide: CDAEGPWGII
Method: as §1

[5] = biological target: T5, GPRC5D peptide stretch 229PQFQRQPQW237 (ECL3) (human); assay: as above
T5 construct: This is a stretch deduced from array peptides that contain it
T5 peptide: PQFQRQPQW
Method: as §1

B1: ET150-8 mIgG1 (antibody, V domains shown)
VH: QVQLVESGGGLVHPGGSLRLSCAASGFTFRSHSMNWVRQAPGKGLEWVSSISSDSTYTYYADSVKGRFTISRDNAKNSLYLQMNSLRAEDTAVYYCARSGGQWKYYDYWGQGTLVTVSS
VL: SSELTQDPAVSVALGQTVRITCQGDSLRSYYASWYQQKPGQAPVLVIYGKNNRPSGIPDRFSGSSSGNTASLTITGAQAEDEADYYCNSRDSSGNPPVVFGGGTKLTVLG
notes: also called ET150-158
binding result [1]: binds
binding result [2]: binds

B2: ET150-5 mIgG1 (antibody, V domains shown)
VH: EVQLVESGGGLVKPGGSLRLSCAASGFTFSDYYMSWIRQAPGKGLEWVSYISSSGSTIYYADSVKGRFTISRDNAKNSLYLQMNSLRAEDTAVYYCARGYGKAYDQWGQGTLVTVSS
VL: QSVLTQPPSASGTPGQRVTISCSGSRSNVGGNYVFWYQQVPGATPKLLIYRSNQRPSGVPDRFAGSKSGSSASLAISGLRSEDEADYYCATWDDSLSGFVFGTGTKVTVLG
notes: also called ET150-155
binding result [3]: binds

B3: ET150-2 mIgG1 (antibody, V domains shown)
VH: QMQLVQSGAEVKKPGASVKVSCKASGYTFNRYAITWVRQAPGQGLEWMGWISAYNGNSHYAQKLQGRVTMTTDTSTGTAYMELRRLRSDDTAVYYCARMAYDSWGQGTLVTVSS
VL: QSVLTQPASVSGSPGQSLTISCTGTSNDVGAYKYVSWYQQYPGKAPKLILYDVFKRPSGVSNRFSGSKSDNTASLTISGLQAEDEADYYCFSLTSSNTYVFGTGTKVTVLG
notes: also called ET150-152
binding result [4]: binds
binding result [5]: binds
